The target in assay [1] is T1, 6×His-MBP-tagged AnaCas9 (Cas9 from Actinomyces naeslundii) (Actinomyces naeslundii, UniProt J3F2B0 1-1101).
T1 construct: not shown: 6×His-MBP tag
T1 sequence: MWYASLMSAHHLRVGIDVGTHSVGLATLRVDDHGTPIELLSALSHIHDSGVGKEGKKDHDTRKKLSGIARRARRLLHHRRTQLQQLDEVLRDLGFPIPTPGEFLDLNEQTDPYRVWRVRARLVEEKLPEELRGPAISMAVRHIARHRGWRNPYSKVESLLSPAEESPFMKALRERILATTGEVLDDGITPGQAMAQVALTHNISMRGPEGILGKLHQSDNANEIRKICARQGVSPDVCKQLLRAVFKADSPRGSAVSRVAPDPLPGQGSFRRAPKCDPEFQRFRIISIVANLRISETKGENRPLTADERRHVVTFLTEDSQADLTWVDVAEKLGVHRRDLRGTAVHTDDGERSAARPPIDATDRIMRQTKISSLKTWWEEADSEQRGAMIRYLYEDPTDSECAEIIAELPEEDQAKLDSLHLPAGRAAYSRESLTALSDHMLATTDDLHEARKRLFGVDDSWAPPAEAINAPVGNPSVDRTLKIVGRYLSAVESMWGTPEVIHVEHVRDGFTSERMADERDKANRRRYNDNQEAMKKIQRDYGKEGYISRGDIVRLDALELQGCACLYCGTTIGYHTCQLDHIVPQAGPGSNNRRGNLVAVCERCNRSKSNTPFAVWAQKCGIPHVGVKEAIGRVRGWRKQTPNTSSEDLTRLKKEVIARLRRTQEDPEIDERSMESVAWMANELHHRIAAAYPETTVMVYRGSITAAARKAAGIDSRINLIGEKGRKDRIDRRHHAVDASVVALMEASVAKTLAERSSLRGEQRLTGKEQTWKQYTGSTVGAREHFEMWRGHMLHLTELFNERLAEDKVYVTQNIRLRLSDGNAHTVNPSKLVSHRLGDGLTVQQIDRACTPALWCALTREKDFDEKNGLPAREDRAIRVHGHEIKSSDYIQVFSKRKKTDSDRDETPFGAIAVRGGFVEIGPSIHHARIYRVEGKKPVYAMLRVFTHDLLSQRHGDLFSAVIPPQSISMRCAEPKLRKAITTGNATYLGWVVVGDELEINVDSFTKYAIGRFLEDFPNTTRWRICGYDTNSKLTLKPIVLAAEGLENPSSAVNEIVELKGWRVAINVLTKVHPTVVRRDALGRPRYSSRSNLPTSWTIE
Description: nickel affinity pulldown with tagged AnaCas9, SDS-PAGE/Coomassie.

In assay [2] the target is T2, 6×His-tagged NmeCas9 (Neisseria meningitidis Cas9) (Neisseria meningitidis, UniProt C9X1G5 1-1082).
T2 sequence: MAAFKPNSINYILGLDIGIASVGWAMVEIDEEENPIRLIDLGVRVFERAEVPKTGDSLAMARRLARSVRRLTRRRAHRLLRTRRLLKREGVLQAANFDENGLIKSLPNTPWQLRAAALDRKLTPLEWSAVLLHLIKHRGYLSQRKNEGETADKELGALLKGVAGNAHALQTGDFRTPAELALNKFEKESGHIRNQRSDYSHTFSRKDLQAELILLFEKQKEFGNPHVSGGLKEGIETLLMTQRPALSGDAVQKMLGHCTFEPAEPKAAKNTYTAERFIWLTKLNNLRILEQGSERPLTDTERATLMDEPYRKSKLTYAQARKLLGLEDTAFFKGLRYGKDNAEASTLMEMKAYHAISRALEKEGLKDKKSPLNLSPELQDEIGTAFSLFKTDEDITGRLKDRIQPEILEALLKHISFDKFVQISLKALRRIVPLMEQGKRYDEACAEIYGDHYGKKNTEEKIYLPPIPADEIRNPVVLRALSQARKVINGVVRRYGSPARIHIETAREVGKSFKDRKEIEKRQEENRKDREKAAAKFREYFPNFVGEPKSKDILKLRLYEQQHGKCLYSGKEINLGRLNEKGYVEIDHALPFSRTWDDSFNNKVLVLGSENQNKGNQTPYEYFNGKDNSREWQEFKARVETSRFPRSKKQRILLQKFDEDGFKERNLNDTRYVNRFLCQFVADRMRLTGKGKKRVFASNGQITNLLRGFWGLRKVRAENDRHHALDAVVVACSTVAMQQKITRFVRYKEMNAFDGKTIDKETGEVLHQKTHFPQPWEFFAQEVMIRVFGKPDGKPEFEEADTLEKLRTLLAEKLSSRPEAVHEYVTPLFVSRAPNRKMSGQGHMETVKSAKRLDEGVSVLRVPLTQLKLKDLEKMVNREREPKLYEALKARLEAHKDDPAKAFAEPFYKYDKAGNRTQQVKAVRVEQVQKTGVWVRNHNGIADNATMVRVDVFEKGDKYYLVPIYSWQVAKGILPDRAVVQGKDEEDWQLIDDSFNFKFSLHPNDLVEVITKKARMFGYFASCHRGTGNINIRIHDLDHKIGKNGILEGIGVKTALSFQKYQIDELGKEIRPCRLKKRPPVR
Description: cell-based or functional assay.

In assay [3] the target is T2, 6×His-tagged NmeCas9 (Neisseria …). Briefly: nickel affinity pulldown with 6×His-NmeCas9:sgRNA, SDS-PAGE/Coomassie.

B1: FLAG-AcrIIC3Nme (AcrIIC3Nme with an N-terminal FLAG tag) (other)
chain: DYKDDDDKMAFKRAIIFTSFNGFEKVSRTEKRRLAKIINARVSIIDEYLRAKDTNASLDGQYRAFLFNDESPAMTEFLAKLKAFAESCTGISIDAWEIEESEYVRLPVERRDFLAAANGKEIFKI
notes: also called 6xHis-TEV-FLAG-AcrIIC3Nme (before TEV cleavage)
As for B1, the binding result in assay [1] is reported as “no binding”. Besides, the “inhibition of in vitro DNA cleavage by NmeCas9, anti-CRISPR at 1:1 molar ratio” value in assay [2] is roughly 50%.

B2: AcrE2 (type I-E anti-CRISPR from Pseudomonas phage JBD88a) (other)
chain: MANTYLIDPRKNNDNSGERFTVDAVDITAAAKSAAQQILGEEFEGLVYRETGESNGSGMFQAYHHLHGTNRTETTVGYPFHVMEL
notes: also called Acr88a-32; Acr88-32
B2: the binding result in assay [3] is “no binding”.

B3: AcrIIC1Nme (Neisseria meningitidis Acr #1) (other)
chain: MANKTYKIGKNAGYDGCGLCLAAISENEAIKVKYLRDICPDYDGDDKAEDWLRWGTDSRVKAAALEMEQYAYTSVGMASCWEFVEL
notes: also called Acr1Nm
Take B3: the binding result in assay [1] is given as “no binding”. Besides, the “inhibition of in vitro DNA cleavage by NmeCas9, anti-CRISPR at 1:1 molar ratio” value in assay [2] is roughly 50%.
